The target in the experiment is MK-3475-596 (MK-3475 derivatized with fluorescent dye Dylight-596) (Dylight-596 amine-reactive dye, reacts preferentially with the primary amine of lysine residues (sites not given)). The experiment in a line: FRET between Dylight-488 labelled Ab6 and Dylight-596 labelled MK-3475, recorded for 72 hours (ex 488 nm, em 620 nm). How it is done:
Dylight-488® or Dylight-596® are amine-reactive dyes, which react preferentially with the primary amine of lysine residues. […] Due to the sensitivity of the assay, the molar concentration of the fluorogenic tagged proteins is either 3.2 uM or 800 nM depending on the protein ratio. FRET fluorescence signals are recorded for 72 hours at λₑₘ=620 nm (λₑₓ=488 nm) (FIG. 49).
If protein interaction occurs, we expect to see a growth of the fluorescence signal as a function of time (FIG. 49). The interaction is evaluated by the rate of growth of the fluorescence and the maximum of the fluorescence signal. The absence of interaction (or a reduced interaction) is characterized by i) a low rate of the growth of the fluorescence signal, and ii) a low plateau maximal. […] The fluorescence baseline is measured in the absence of labeled protein.

Chain of MK-3475-596 (MK-3475 derivatized with fluorescent dye Dylight-596) (Dylight-596 amine-reactive dye, reacts preferentially with the primary amine of lysine residues (sites not given)) (VH, as listed by the source, chain 1 of 2): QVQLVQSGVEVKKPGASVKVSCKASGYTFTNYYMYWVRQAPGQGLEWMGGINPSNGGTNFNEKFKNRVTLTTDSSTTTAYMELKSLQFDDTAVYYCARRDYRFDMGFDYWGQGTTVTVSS
Chain of MK-3475-596 (MK-3475 derivatized with fluorescent dye Dylight-596) (Dylight-596 amine-reactive dye, reacts preferentially with the primary amine of lysine residues (sites not given)) (VL, as listed by the source, chain 2 of 2): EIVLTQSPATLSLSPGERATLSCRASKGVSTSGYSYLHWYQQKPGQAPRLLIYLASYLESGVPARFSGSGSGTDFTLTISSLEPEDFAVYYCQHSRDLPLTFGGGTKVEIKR

B1: Ab6-488 (Ab6 derivatized with fluorescent dye Dylight-488) (antibody, human IgG4 S228P, kappa, V domains shown)
VH: QMQLVQSGPEVKKPGTSVKVSCKASGYTFTDYNVDWVRQARGQRLEWIGDINPNDGGTIYAQKFQERVTITVDKSTSTAYMELSSLRSEDTAVYYCARNYRWFGAMDHWGQGTTVTVSS
VL: DIVMTQTPLSLSVTPGQPASISCKASQSLDYEGDSDMNWYLQKPGQPPQLLIYGASNLESGVPDRFSGSGSGTDFTLKISRVEAEDVGVYYCQQSTEDPRTFGGGTKVEIKR
modifications: Dylight-488 amine-reactive dye, reacts preferentially with the primary amine of lysine residues (sites not given)
On to B1, for which the binding result is listed as “no binding”.

For the origin of these results see patent publication US20220002410A1 (Merck Sharp & Dohme, published 2022).
